Where no end group is shown, it is not given here. [ ]: non-standard residue; d: D form. pS = N[C@@H](COP(=O)(O)O)C(=O)O
T1: EGFR-pY992 phosphopeptide, DADE(p)YLIPQQGFFSSPSTSC (phosphotyrosine at (p)Y (residue 5 of the printed peptide; EGFR Tyr992))
T1 construct: also called EGFR-pTyr992
T1 peptide: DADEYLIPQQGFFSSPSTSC

B1: βTRCP1 (EST clone IMAGE 3491843), in vitro translated, biotin-labelled (other, human, UniProt Q9Y297 1-605, looked up)
chain: MDPAEAVLQEKALKFMCSMPRSLWLGCSSLADSMPSLRCLYNPGTGALTAFQNSSEREDCNNGEPPRKIIPEKNSLRQTYNSCARLCLNQETVCLASTAMKTENCVAKTKLANGTSSMIVPKQRKLSASYEKEKELCVKYFEQWSESDQVEFVEHLISQMCHYQHGHINSYLKPMLQRDFITALPARGLDHIAENILSYLDAKSLCAAELVCKEWYRVTSDGMLWKKLIERMVRTDSLWRGLAERRGWGQYLFKNKPPDGNAPPNSFYRALYPKIIQDIETIESNWRCGRHSLQRIHCRSETSKGVYCLQYDDQKIVSGLRDNTIKIWDKNTLECKRILTGHTGSVLCLQYDERVIITGSSDSTVRVWDVNTGEMLNTLIHHCEAVLHLRFNNGMMVTCSKDRSIAVWDMASPTDITLRRVLVGHRAAVNVVDFDDKYIVSASGDRTIKVWNTSTCEFVRTLNGHKRGIACLQYRDRLVVSGSSDNTIRLWDIECGACLRVLEGHEELVRCIRFDNKRIVSGAYDGKIKVWDLVAALDPRAPAGTLCLRTLVEHSGRVFRLQFDEFQIVSSSHDDTILIWDFLNDPAAQAEPPRSPSRTYTYISR
modifications: biotin on some lysine residues (incorporated at random from biotin-Lys-tRNA)
notes: Product of a coupled transcription/translation reaction, used without purification; the text speaks of the genes in the human genome and of full-length cDNAs; also called βTRCP [c]; bTRCP1
B2: Shc1 (EST clone IMAGE 3907115), in vitro translated, biotin-labelled (other, UniProt P29353-2 1-473, looked up)
chain: MNKLSGGGGRRTRVEGGQLGGEEWTRHGSFVNKPTRGWLHPNDKVMGPGVSYLVRYMGCVEVLQSMRALDFNTRTQVTREAISLVCEAVPGAKGATRRRKPCSRPLSSILGRSNLKFAGMPITLTVSTSSLNLMAADCKQIIANHHMQSISFASGGDPDTAEYVAYVAKDPVNQRACHILECPEGLAQDVISTIGQAFELRFKQYLRNPPKLVTPHDRMAGFDGSAWDEEEEEPPDHQYYNDFPGKEPPLGGVVDMRLREGAAPGAARPTAPNAQTPSHLGATLPVGQPVGGDPEVRKQMPPPPPCPGRELFDDPSYVNVQNLDKARQAVGGAGPPNPAINGSAPRDLFDMKPFEDALRVPPPPQSVSMAEQLRGEPWFHGKLSRREAEALLQLNGDFLVRESTTTPGQYVLTGLQSGQPKHLLLVDPEGVVRTKDHRFESVSHLISYHMDNHLPIISAGSELCLQQPVERKL
modifications: biotin on some lysine residues (incorporated at random from biotin-Lys-tRNA)
B3: IkBa phosphopeptide (IkBa-24pp), LKKERLLDDRHD(p)SGLD(p)SMKDEEYC (peptide)
peptide: LKKERLLDDRHD[pS]GLD[pS]MKDEEYC
modifications: not fully specified (residue 24); also: C-terminal Cys coupled to maleimide-activated BSA
notes: Chemically synthesized; the peptide-BSA conjugate was deposited on the electrode; also called IkBa peptide; IkBa-24ppC
B4: Phospholipase C gamma 1 (PLCγ) (EST clone IMAGE 4419252), in vitro translated, biotin-labelled (enzyme, UniProt P19174 1-1290, looked up)
chain: MAGAASPCANGCGPGAPSDAEVLHLCRSLEVGTVMTLFYSKKSQRPERKTFQVKLETRQITWSRGADKIEGAIDIREIKEIRPGKTSRDFDRYQEDPAFRPDQSHCFVILYGMEFRLKTLSLQATSEDEVNMWIKGLTWLMEDTLQAPTPLQIERWLRKQFYSVDRNREDRISAKDLKNMLSQVNYRVPNMRFLRERLTDLEQRSGDITYGQFAQLYRSLMYSAQKTMDLPFLEASTLRAGERPELCRVSLPEFQQFLLDYQGELWAVDRLQVQEFMLSFLRDPLREIEEPYFFLDEFVTFLFSKENSVWNSQLDAVCPDTMNNPLSHYWISSSHNTYLTGDQFSSESSLEAYARCLRMGCRCIELDCWDGPDGMPVIYHGHTLTTKIKFSDVLHTIKEHAFVASEYPVILSIEDHCSIAQQRNMAQYFKKVLGDTLLTKPVEISADGLPSPNQLKRKILIKHKKLAEGSAYEEVPTSMMYSENDISNSIKNGILYLEDPVNHEWYPHYFVLTSSKIYYSEETSSDQGNEDEEEPKEVSSSTELHSNEKWFHGKLGAGRDGRHIAERLLTEYCIETGAPDGSFLVRESETFVGDYTLSFWRNGKVQHCRIHSRQDAGTPKFFLTDNLVFDSLYDLITHYQQVPLRCNEFEMRLSEPVPQTNAHESKEWYHASLTRAQAEHMLMRVPRDGAFLVRKRNEPNSYAISFRAEGKIKHCRVQQEGQTVMLGNSEFDSLVDLISYYEKHPLYRKMKLRYPINEEALEKIGTAEPDYGALYEGRNPGFYVEANPMPTFKCAVKALFDYKAQREDELTFIKSAIIQNVEKQEGGWWRGDYGGKKQLWFPSNYVEEMVNPVALEPEREHLDENSPLGDLLRGVLDVPACQIAIRPEGKNNRLFVFSISMASVAHWSLDVAADSQEELQDWVKKIREVAQTADARLTEGKIMERRKKIALELSELVVYCRPVPFDEEKIGTERACYRDMSSFPETKAEKYVNKAKGKKFLQYNRLQLSRIYPKGQRLDSSNYDPLPMWICGSQLVALNFQTPDKPMQMNQALFMTGRHCGYVLQPSTMRDEAFDPFDKSSLRGLEPCAISIEVLGARHLPKNGRGIVCPFVEIEVAGAEYDSTKQKTEFVVDNGLNPVWPAKPFHFQISNPEFAFLRFVVYEEDMFSDQNFLAQATFPVKGLKTGYRAVPLKNNYSEDLELASLLIKIDIFPAKENGDLSPFSGTSLRERGSDASGQLFHGRAREGSFESRYQQPFEDFRISQEHLADHFDSRERRAPRRTRVNGDNRL
modifications: biotin on some lysine residues (incorporated at random from biotin-Lys-tRNA)
notes: also called PLCg
B5: βTRCP2 (EST clone IMAGE 4237375), in vitro translated, biotin-labelled (other, human, UniProt Q9UKB1 1-542, looked up)
chain: MEPDSVIEDKTIELMCSVPRSLWLGCANLVESMCALSCLQSMPSVRCLQISNGTSSVIVSRKRPSEGNYQKEKDLCIKYFDQWSESDQVEFVEHLISRMCHYQHGHINSYLKPMLQRDFITALPEQGLDHIAENILSYLDARSLCAAELVCKEWQRVISEGMLWKKLIERMVRTDPLWKGLSERRGWDQYLFKNRPTDGPPNSFYRSLYPKIIQDIETIESNWRCGRHNLQRIQCRSENSKGVYCLQYDDEKIISGLRDNSIKIWDKTSLECLKVLTGHTGSVLCLQYDERVIVTGSSDSTVRVWDVNTGEVLNTLIHHNEAVLHLRFSNGLMVTCSKDRSIAVWDMASATDITLRRVLVGHRAAVNVVDFDDKYIVSASGDRTIKVWSTSTCEFVRTLNGHKRGIACLQYRDRLVVSGSSDNTIRLWDIECGACLRVLEGHEELVRCIRFDNKRIVSGAYDGKIKVWDLQAALDPRAPASTLCLRTLVEHSGRVFRLQFDEFQIISSSHDDTILIWDFLNVPPSAQNETRSPSRTYTYISR
modifications: biotin on some lysine residues (incorporated at random from biotin-Lys-tRNA)
notes: Product of a coupled transcription/translation reaction, used without purification; also called βTRCP [c]; bTRCP2

Assays:
[1] = biological target: T1, EGFR-pY992 phosphopeptide, …; test: ECL 4-spot multi-array binding assay: peptide-BSA spot, biotinylated TnT protein, Sulfo-TAG streptavidin
[2] = biological target: T1, EGFR-pY992 phosphopeptide, …; test: ECL 7-spot plate screen, peptide-BSA spot, biotinylated TnT protein, Ru-streptavidin; signal normalized in two steps
[3] = biological target: B3; test: ECL plate binding assay: peptide-BSA on electrode, biotinylated TnT protein, Sulfo-TAG streptavidin
Method: (§1) Also included were three other non specific EST clones as controls (Incyte, Palo alto, Calif.). […] Proteins were transferred into wells of the peptide-coated and BSA-blocked IPR plates. Sulfo-TAG labeled streptavidin (50 to 100 ng/well) was added to each well as the detection agent. […] The ECL signals were measured using an imaging plate reader (IPR).

[4] = biological target: T2, c-Myc phosphopeptide (Myc-p58Tp62S), …(p)TPPL(p)SPSRRSGL (phosphothreonine and phosphoserine in P(p)TPPL(p)S (residues 15 and 19 of the printed peptide)); test: as above
T2 construct: Chemically synthesized; control peptide; also called c-Myc peptide
T2 sequence (peptide, as listed by the source): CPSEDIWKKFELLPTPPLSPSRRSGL
Method: as §1

[5] = biological target: B4; test: ECL plate binding assay, peptide-BSA on electrode
[6] = biological target: B2; test: ECL plate binding assay, peptide-BSA on electrode
[7] = biological target: B3; test: ECL 4-spot multi-array binding assay: peptide-BSA spot, biotinylated TnT protein, Sulfo-TAG streptavidin

B1
ECL signal [1]: 54 ECL signal
normalized ECL signal [2]: 1

B2
Average ECL signal [3]: 368 ECL signal
Average ECL signal [4]: 341 ECL signal

B3
binding result [5]: no binding
binding result [6]: no binding

B4
Average ECL signal [3]: 341 ECL signal
Average ECL signal [4]: 316 ECL signal
ECL signal [7]: 26 ECL signal

B5
ECL signal [1]: 60 ECL signal
normalized ECL signal [2]: 1
